# From US20220003784A1 (ASSISTANCE PUBLIQUE H PITAUX DE MARSEILLE, published 2022)
# T1: ADAM10 (UniProt O14672 214-748, limits assumed)
# T1 construct: Endogenous protein of ECFC endothelial cells
# T1 sequence (looked up): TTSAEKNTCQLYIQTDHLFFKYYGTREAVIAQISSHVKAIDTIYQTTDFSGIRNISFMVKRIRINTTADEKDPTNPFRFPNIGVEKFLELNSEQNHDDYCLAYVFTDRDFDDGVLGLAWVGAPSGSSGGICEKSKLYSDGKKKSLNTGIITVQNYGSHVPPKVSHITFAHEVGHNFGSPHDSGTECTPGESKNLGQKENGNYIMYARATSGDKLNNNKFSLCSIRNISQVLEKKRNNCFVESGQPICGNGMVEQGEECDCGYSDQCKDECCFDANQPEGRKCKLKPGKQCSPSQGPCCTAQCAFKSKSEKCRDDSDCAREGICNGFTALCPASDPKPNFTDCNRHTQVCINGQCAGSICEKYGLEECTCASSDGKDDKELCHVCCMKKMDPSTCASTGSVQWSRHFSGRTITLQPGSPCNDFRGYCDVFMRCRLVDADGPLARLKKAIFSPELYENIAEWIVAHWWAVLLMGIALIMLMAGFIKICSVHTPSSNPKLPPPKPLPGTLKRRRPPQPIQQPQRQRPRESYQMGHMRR
# T2: Human long CD146 protein
# T2 chain: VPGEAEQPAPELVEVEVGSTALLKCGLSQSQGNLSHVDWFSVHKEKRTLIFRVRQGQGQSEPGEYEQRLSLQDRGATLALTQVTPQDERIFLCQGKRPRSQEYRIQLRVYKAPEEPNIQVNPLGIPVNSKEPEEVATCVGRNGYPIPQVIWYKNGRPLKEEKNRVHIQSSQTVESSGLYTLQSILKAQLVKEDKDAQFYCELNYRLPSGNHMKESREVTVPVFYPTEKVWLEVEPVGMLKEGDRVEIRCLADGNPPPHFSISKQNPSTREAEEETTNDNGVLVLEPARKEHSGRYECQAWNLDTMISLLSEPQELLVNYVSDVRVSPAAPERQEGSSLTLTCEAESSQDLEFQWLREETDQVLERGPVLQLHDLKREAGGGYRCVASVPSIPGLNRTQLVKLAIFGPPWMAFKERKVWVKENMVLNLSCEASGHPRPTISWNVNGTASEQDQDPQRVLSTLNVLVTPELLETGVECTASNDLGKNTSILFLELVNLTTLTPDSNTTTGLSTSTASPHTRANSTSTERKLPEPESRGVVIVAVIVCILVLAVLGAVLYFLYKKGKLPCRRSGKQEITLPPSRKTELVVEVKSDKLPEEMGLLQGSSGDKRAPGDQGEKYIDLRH
# Experiments:
# ADAM10 = target: T1, ADAM10; assay: co-immunoprecipitation from ECFC in control condition (ADAM10 immunoprecipitated, CD146 isoforms detected by western blot)
# Source text: C: ADAM10 was immunoprecipitated in ECFC cultured in basal condition (EBM2). The long (IgCD146) and short (shCD146) isoforms of CD146 were then detected by western blot using specific antibodies. Results are representative of 3 different experiments.
# Human long CD146 protein = target: T2, Human long CD146 protein
binding result (ADAM10),Binder,reduction of sCD146 secretion by ECFC under TNF after ADAM10 siRNA (Human long CD146 protein),sCD146 secretion by ECFC in control condition after siRNA (Human long CD146 protein),sCD146 secretion by a CHO clone stably expressing lgCD146 after transfection with an ADAM10 plasmid (Human long CD146 protein)
no binding,"Human short CD146 protein (other, Endogenous membrane isoform in ECFC, detected by western blot in immunoprecipitates from cell lysates; also expressed from a plasmid in CHO cells; also called shCD146; short isoform of CD146) VPGEAEQPAPELVEVEVGSTALLKCGLSQSQGNLSHVDWFSVHKEKRTLIFRVRQGQGQSEPGEYEQRLSLQDRGATLALTQVTPQDERIFLCQGKRPRSQEYRIQLRVYKAPEEPNIQVNPLGIPVNSKEPEEVATCVGRNGYPIPQVIWYKNGRPLKEEKNRVHIQSSQTVESSGLYTLQSILKAQLVKEDKDAQFYCELNYRLPSGNHMKESREVTVPVFYPTEKVWLEVEPVGMLKEGDRVEIRCLADGNPPPHFSISKQNPSTREAEEETTNDNGVLVLEPARKEHSGRYECQAWNLDTMISLLSEPQELLVNYVSDVRVSPAAPERQEGSSLTLTCEAESSQDLEFQWLREETDQVLERGPVLQLHDLKREAGGGYRCVASVPSIPGLNRTQLVKLAIFGPPWMAFKERKVWVKENMVLNLSCEASGHPRPTISWNVNGTASEQDQDPQRVLSTLNVLVTPELLETGVECTASNDLGKNTSILFLELVNLTTLTPDSNTTTGLSTSTASPHTRANSTSTERKLPEPESRGVVIVAVIVCILVLAVLGAVLYFLYKKGKLPCRRSGKQEMERNTSI",–,–,–
–,ADAM10 (protein) TTSAEKNTCQLYIQTDHLFFKYYGTREAVIAQISSHVKAIDTIYQTTDFSGIRNISFMVKRIRINTTADEKDPTNPFRFPNIGVEKFLELNSEQNHDDYCLAYVFTDRDFDDGVLGLAWVGAPSGSSGGICEKSKLYSDGKKKSLNTGIITVQNYGSHVPPKVSHITFAHEVGHNFGSPHDSGTECTPGESKNLGQKENGNYIMYARATSGDKLNNNKFSLCSIRNISQVLEKKRNNCFVESGQPICGNGMVEQGEECDCGYSDQCKDECCFDANQPEGRKCKLKPGKQCSPSQGPCCTAQCAFKSKSEKCRDDSDCAREGICNGFTALCPASDPKPNFTDCNRHTQVCINGQCAGSICEKYGLEECTCASSDGKDDKELCHVCCMKKMDPSTCASTGSVQWSRHFSGRTITLQPGSPCNDFRGYCDVFMRCRLVDADGPLARLKKAIFSPELYENIAEWIVAHWWAVLLMGIALIMLMAGFIKICSVHTPSSNPKLPPPKPLPGTLKRRRPPQPIQQPQRQRPRESYQMGHMRR,"ADAM10 and Tace siRNA reduced sCD146 secretion by 60% and 25%, respectively",only ADAM10 siRNA was able to inhibit sCD146 secretion and that the effect was similar to that of GM6001,"in the presence of ADAM10, sCD146 secretion was significantly increased"
